Like-named read-outs stand apart in the source and are kept apart here.
T1: VAL1-B3 wt (C-terminal His6) (Arabidopsis thaliana, UniProt Q8W4L5 288-397)
T1 sequence: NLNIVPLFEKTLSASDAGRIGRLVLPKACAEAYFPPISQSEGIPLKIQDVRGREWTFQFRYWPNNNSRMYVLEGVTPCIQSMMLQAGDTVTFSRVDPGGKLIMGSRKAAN

T2: VAL1-B3 N352A (Arabidopsis thaliana, UniProt Q8W4L5 288-397, N352A)
T2 sequence: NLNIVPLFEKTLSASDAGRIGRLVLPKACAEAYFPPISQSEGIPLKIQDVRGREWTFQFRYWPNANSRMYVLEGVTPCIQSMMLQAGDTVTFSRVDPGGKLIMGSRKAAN

T3: VAL1-B3 Q345R (Arabidopsis thaliana, UniProt Q8W4L5 288-397, Q345R)
T3 sequence: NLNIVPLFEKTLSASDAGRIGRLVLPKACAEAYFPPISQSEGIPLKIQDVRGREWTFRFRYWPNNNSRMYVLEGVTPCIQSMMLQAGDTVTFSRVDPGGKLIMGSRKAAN

T4: VAL1-B3 R306A (Arabidopsis thaliana, UniProt Q8W4L5 288-397, R306A)
T4 sequence: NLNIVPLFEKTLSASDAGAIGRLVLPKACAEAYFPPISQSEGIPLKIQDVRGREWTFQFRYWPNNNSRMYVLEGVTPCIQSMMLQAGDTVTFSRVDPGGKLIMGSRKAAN

T5: VAL1-B3 I307A (Arabidopsis thaliana, UniProt Q8W4L5 288-397, I307A)
T5 sequence: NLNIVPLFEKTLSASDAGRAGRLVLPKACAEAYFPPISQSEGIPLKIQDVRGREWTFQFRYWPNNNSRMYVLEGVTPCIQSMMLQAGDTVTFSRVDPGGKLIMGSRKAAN


Key:
Experiment in all cases: EMSA
[1] = target: T1, VAL1-B3 wt (C-terminal His6)
[2] = target: T2, VAL1-B3 N352A
[3] = target: T3, VAL1-B3 Q345R
[4] = target: T4, VAL1-B3 R306A
[5] = target: T5, VAL1-B3 I307A
[6] = target: T1, VAL1-B3 wt (C-terminal His6); remark: listed apart in the source
[7] = target: T1, VAL1-B3 wt (C-terminal His6); remark: listed apart in the source

| Binder | binding result [1] | other results |
| --- | --- | --- |
| 12/12_6C (dsDNA) DNA 1: CGGTGCATCGCT DNA 2: AGCGATGCACCG | no binding |  |
| 12/12_6A (dsDNA) DNA 1: CGGTGCATAGCT DNA 2: AGCTATGCACCG | no binding |  |
| 12/12SP (dsDNA) DNA 1: CGGTGCATGGCT DNA 2: AGCCATGCACCG |  | binding result [2]: binds; binding result [3]: binds; binding result [4]: no binding; binding result [5]: binds; Kd [6]: ~3 µM |
| 12/12_2A (dsDNA) DNA 1: CGGTACATGGCT DNA 2: AGCCATGTACCG | no binding |  |
| 12/12_3T (dsDNA) DNA 1: CGGTGTATGGCT DNA 2: AGCCATACACCG | no binding |  |
| 12/12_4T (dsDNA) DNA 1: CGGTGCTTGGCT DNA 2: AGCCAAGCACCG | no binding |  |
| 12/12_2T (dsDNA) DNA 1: CGGTTCATGGCT DNA 2: AGCCATGAACCG | no binding |  |
| 12/12_2C (dsDNA) DNA 1: CGGTCCATGGCT DNA 2: AGCCATGGACCG | no binding |  |
| 12/12SP_2 (dsDNA) DNA 1: CGCTGCATGCCT DNA 2: AGGCATGCAGCG |  | binding result [7]: binds |
| 12/12_6T (dsDNA) DNA 1: CGGTGCATTGCT DNA 2: AGCAATGCACCG | no binding |  |
| 12/12_5C (dsDNA) DNA 1: CGGTGCACGGCT DNA 2: AGCCGTGCACCG | no binding |  |
| 12/12_1C (dsDNA) DNA 1: CGGCGCATGGCT DNA 2: AGCCATGCGCCG | no binding |  |
| 12/12_3A (dsDNA) DNA 1: CGGTGAATGGCT DNA 2: AGCCATTCACCG | no binding |  |
| 12/12_1A (dsDNA) DNA 1: CGGAGCATGGCT DNA 2: AGCCATGCTCCG | no binding |  |
| 12/12_5A (dsDNA) DNA 1: CGGTGCAAGGCT DNA 2: AGCCTTGCACCG | no binding |  |

Source: PMC5934628
